Laboratory results: article PMC4837377

How the values were obtained:
[1] = biological target: T1, PA;PB1 (in PA-PB1-PB2(1-116));PB2(1-116) (Influenza A virus A/Victoria/3/1975(H3N2);Influenza A virus A/Victoria/3/1975(H3N2);Influenza A virus A/Victoria/3/1975(H3N2)) (UniProt P03432+H9XIJ5); assay: filter binding
[2] = biological target: PA;PB1(1-686) (Influenza A virus A/Victoria/3/1975(H3N2);Influenza A virus A/Victoria/3/1975(H3N2)) (UniProt P03432); assay: fluorescence anisotropy; conditions: 5'-monophosphate
[3] = system: PA;PB1(1-686);RanBP5 (Influenza A virus A/Victoria/3/1975(H3N2);Influenza A virus A/Victoria/3/1975(H3N2);Homo sapiens), P03432+O00410-3; assay: fluorescence anisotropy; conditions: 5'-monophosphate
[4] = biological target: T1, PA;PB1 (in PA-PB1-PB2(1-116));PB2(1-116) (Influenza A virus A/Victoria/3/1975(H3N2);Influenza A virus A/Victoria/3/1975(H3N2);Influenza A virus A/Victoria/3/1975(H3N2)); assay: fluorescence anisotropy
NP = assay: fluorescence anisotropy; conditions: 5'-monophosphate
[5] = biological target: PA;PB1(1-686) (Influenza A virus A/Victoria/3/1975(H3N2);Influenza A virus A/Victoria/3/1975(H3N2)) (UniProt P03432); assay: filter binding

T1 sequence (P03432 whole entry, looked up, chain 2 of 2, other chains not shown): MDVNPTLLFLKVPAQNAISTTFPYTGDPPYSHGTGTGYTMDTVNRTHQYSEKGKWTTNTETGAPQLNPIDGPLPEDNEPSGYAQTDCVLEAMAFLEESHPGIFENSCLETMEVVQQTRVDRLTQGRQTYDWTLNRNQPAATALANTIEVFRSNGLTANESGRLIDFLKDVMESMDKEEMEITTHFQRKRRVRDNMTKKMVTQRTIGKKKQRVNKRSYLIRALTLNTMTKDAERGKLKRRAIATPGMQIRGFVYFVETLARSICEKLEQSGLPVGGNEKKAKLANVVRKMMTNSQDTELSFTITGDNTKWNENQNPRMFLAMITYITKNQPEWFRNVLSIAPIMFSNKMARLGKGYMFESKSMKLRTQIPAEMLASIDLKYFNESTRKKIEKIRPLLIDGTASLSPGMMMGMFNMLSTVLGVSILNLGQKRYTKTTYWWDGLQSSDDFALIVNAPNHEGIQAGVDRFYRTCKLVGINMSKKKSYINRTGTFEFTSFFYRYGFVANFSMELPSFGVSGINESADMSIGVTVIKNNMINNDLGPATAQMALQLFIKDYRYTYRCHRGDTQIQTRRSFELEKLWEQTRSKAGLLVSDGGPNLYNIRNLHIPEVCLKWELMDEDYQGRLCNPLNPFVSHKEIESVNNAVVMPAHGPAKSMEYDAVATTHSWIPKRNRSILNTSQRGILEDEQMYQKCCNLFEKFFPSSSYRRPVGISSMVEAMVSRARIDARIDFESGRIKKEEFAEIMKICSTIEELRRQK
Sequence of PA;PB1(1-686) (Influenza A virus A/Victoria/3/1975(H3N2);Influenza A virus A/Victoria/3/1975(H3N2)) (P03432 whole entry, looked up): as the sequence (P03432 whole entry, looked up, chain 2 of 2, other chains not shown) above
Sequence of PA;PB1(1-686);RanBP5 (Influenza A virus A/Victoria/3/1975(H3N2);Influenza A virus A/Victoria/3/1975(H3N2);Homo sapiens), P03432+O00410-3 (O00410 whole entry, looked up, chain 1 of 2): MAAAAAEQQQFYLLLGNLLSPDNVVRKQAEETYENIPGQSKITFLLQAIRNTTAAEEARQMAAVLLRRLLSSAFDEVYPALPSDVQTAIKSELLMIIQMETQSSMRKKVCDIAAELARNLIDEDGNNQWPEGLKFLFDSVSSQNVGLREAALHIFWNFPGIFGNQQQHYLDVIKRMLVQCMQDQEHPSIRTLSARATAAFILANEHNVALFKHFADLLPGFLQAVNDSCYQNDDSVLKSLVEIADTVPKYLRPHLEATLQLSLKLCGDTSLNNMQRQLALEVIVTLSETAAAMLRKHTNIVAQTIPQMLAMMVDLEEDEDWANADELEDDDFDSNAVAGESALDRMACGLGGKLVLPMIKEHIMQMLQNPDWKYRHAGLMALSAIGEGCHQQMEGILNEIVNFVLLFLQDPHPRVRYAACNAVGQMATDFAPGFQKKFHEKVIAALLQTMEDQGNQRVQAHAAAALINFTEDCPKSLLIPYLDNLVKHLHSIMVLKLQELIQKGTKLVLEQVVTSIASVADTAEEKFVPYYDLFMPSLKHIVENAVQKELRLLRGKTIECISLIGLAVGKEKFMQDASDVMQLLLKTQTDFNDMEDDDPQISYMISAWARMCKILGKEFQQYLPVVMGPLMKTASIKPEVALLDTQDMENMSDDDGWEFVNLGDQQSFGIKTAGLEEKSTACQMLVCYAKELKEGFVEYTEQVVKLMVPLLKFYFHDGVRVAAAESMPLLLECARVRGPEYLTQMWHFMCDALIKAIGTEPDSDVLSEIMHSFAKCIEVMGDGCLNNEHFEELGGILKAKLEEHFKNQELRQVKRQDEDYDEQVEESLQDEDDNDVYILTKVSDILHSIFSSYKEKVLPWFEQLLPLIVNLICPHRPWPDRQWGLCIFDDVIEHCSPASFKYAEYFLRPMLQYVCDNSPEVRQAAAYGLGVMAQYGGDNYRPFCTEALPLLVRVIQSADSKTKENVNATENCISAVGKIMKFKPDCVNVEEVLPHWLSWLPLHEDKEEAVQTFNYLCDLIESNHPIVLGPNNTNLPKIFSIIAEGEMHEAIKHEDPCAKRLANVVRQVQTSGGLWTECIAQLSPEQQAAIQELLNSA
Sequence of PA;PB1(1-686);RanBP5 (Influenza A virus A/Victoria/3/1975(H3N2);Influenza A virus A/Victoria/3/1975(H3N2);Homo sapiens), P03432+O00410-3 (P03432 whole entry, looked up, chain 2 of 2): as the sequence (P03432 whole entry, looked up, chain 2 of 2, other chains not shown) above

Question: How did the Kd [1] turn out when AUACCCUGCUUUUGCU [3'-vRNAp (32P)] was run?
Answer: 17 nM

Question: Which results are given for AGUAGAAACAAGGGUA [5'-vRNAp]?
Answer: Kd [2]: 0.87 nM; Kd [3]: > 1000 nM; Kd ([4]; 5'-monophosphate): 0.83 nM

Question: How did the Kd [4] turn out when AUACCCUGCUUUUGCU [3'-vRNAp] was run?
Answer: 36 nM

Question: What does the source list for UCUCUCUCUCUCUCUCUC [polyUC]?
Answer: Kd (NP): 29 nM; Kd ([4]; 5'-monophosphate): > 1000 nM

Question: What does the source list for AGUAGAAACAAGGGUA [5'-vRNAp (32P)]?
Answer: Kd [5]: 0.38 nM; Kd [1]: 0.19 nM
